Results: patent publication US20250297005A1 (FORTVITA BIOLOGICS SINGAPORE PTE, published 2025)
Blank lines part the entries; values can stand above or below the binder they belong to.

Assays:
[1] = biological target: T1, human CLDN18.2 on cells (HEK293-hCLDN18.2, DAN-G-hCLDN18.2, NUGC-4) (human, UniProt P56856-2 1-261); assay: flow cytometry of hybridoma supernatant on HEK293-hCLDN18.2 cells
T1 construct: whole, on cells; Transfected full-length gene in HEK293 and DAN-G cells; endogenous in the gastric cancer line NUGC-4; also called Claudin18.2
T1 sequence (looked up): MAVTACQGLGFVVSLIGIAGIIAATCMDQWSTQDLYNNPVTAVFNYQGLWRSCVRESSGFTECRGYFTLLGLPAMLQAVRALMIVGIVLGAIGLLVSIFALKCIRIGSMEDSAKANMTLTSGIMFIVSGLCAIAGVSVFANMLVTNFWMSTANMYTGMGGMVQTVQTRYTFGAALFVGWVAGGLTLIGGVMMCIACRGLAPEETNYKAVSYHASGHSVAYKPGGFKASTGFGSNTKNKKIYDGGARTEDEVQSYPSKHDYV
Procedure: In the present invention, H2L2 fully human antibody transgenic mice (purchased from Harbour BioMed) were immunized with the cells obtained in Example 1 (CHO-hCLDN18.2) by using the hybridoma technology. Spleen cells from the mice were then harvested and electrofused with myeloma cells. […] The test cells (HEK293-hCLDN18.2) obtained in Example 1 were counted, diluted to 1×10⁶ cells/mL, and then added to a U-bottom 96-well plate at 100 µL/well. The cells were centrifuged at 500 g for 5 min, and the cell medium was removed. The hybridoma culture supernatant in a 96-well plate was added to the U-bottom plate at 100 μL/well, the cells were resuspended, and the suspension was left to stand on ice for 30 min. The suspension was centrifuged at 500 g for 5 min, the supernatant was removed, and the cells were washed once with PBS. 100 μL of FITC-labeled anti-mouse Fab secondary antibody (1:500 dilution in PBS) was added to each well, and 100 μL of FITC-labeled anti-human Fab secondary antibody was added to the positive control antibody. The resulting mixture was incubated on ice in the dark for 30 min. The mixture was centrifuged at 500 g for 5 min, the supernatant was removed, and the cells were washed once with PBS. The cells were resuspended in 50 μL of 1×PBS, and the suspension was loaded for FACS assay. […]

[2] = biological target: T1, human CLDN18.2 on cells …; assay: cell-based or functional assay

binding result [1]: binds
B1: fully human antibody clone HB37A6 (hybridoma culture supernatant) (antibody, V domains shown)
VH: EVQLLDSGGGLVQPGGSLRLSCAASGFTFSSYVMSWVRQAPGKGLNWVSTISHSGGSTYYADSVKGRFTISRDNSKNTLYLQMNSLRAEDTAVYYCAIDAPYYDILTGYRYWGQGTLVTVSS
VL: not shown
notes: Tested as hybridoma supernatant from H2L2 transgenic mice; also called anti-CLDN18.2 antibody

B2: bispecific antibody 030 (anti-CLDN18.2 moiety HB37A6 x anti-CD3 moiety HzSP34.24) (bispecific antibody, human IgG1, kappa, lambda, L234A L235A)
heavy 1: not shown
light 1: not shown
heavy 2: not shown
light 2: QAVVTQEPSLTVSPGGTVTLTCRSSTGAVTTSNYANWVQQKPGQAPRGLIGGTNKRAPGVPARFSGSLLGDKAALTLLGAQPEDEAEYYCALWYSNLWVFGQGTKLTVLGQPKAAPSVTLFPPSSEELQANKATLVCLISDFYPGAVTVAWKADSSPVKAGVETTTPSKQSNNKYAASSYLSLTPEQWKSHRSYSCQVTHEGSTVEKTVAPTECS
EC50 of in vitro T cell (PBMC) killing of gastric cancer cells NUGC-4 [2]: < 1 pM
EC50 of in vitro T cell (PBMC) killing of pancreatic cancer cells DAN-G-hCLDN18.2 [2]: < 0.1 pM

B3: bispecific antibody 032 (anti-CLDN18.2 moiety HB37A6 x anti-CD3 moiety HzSP34.87) (bispecific antibody, human IgG1, kappa, lambda, L234A L235A)
heavy 1: not shown
light 1: not shown
heavy 2: not shown
light 2: B2 light 2
EC50 of in vitro T cell (PBMC) killing of gastric cancer cells NUGC-4 [2]: < 1 pM
EC50 of in vitro T cell (PBMC) killing of pancreatic cancer cells DAN-G-hCLDN18.2 [2]: < 0.1 pM
